We go through five substances from paper PMC6692582.

In experiment [1] the target is N-terminal NanoLuc-tagged VEGFR2 (wild type) (UniProt P35968). Put plainly: FRET or BRET; NanoBRET kinetics, membranes from NanoLuc-VEGFR2 HEK293T cells (10 μg per well); five concentrations of fluorescent ligand (1–20 nM); every 30 s for 90 min at 37°C; KD kinetic (koff/kon).
The target is the same in experiment [2]. Described as above. This is another data set of the same source.
The target is the same in experiment [3]. The experiment in a line: FRET or BRET; NanoBRET saturation binding, membranes from NanoLuc-VEGFR2 HEK293T cells (5 μg per well); increasing fluorescent ligand with or without 100 nM corresponding unlabelled ligand; 60 min, 37°C; HeBSS/0.1% BSA pH 7.4.
The target of experiment [4] is NanoLuc-VEGFR2 (Homo sapiens) (UniProt P35968). The experiment in a line: NanoBRET kinetics, intact cells. The following applies: cited from earlier work. (BRET reads energy transfer from a luciferase to a nearby fluorophore.)
The target of experiment [5] is N-terminal NanoLuc-tagged VEGFR2 (wild type) (UniProt P35968). Put plainly: FRET or BRET; NanoBRET displacement, membranes from NanoLuc-VEGFR2 HEK293T cells (5 μg per well); five fixed concentrations of fluorescent ligand with increasing VEGF-Ax (0.03–30 nM); 60 min, 37°C; Ki by Cheng–Prusoff.
The target is the same in experiment [6]. The experiment in a line: FRET or BRET; NanoBRET saturation binding, wild-type NanoLuc-VEGFR2 membranes (5 μg per well), HeBSS/0.1% BSA pH 6.0 (5.8–6.2); with or without 100 nM VEGF165b; 60 min, 37°C.
Experiment [7] shares this target. The experiment in a line: FRET or BRET; NanoBRET saturation binding, wild-type NanoLuc-VEGFR2 membranes (5 μg per well), HeBSS/0.1% BSA pH 7.4 (matched with pH 6.0); with or without 100 nM VEGF165b; 60 min, 37°C.
The target is the same in experiment [8]. The experiment in a line: FRET or BRET; NanoBRET kinetics, NanoLuc-VEGFR2 membranes preincubated with 0.01% DMSO (30 min, 37°C); four concentrations of VEGF165b-TMR (3–20 nM), 90 min at 37°C; KD kinetic (koff/kon).
Experiment [9] shares this target. Put plainly: FRET or BRET; NanoBRET kinetics, NanoLuc-VEGFR2 membranes preincubated with 1 μM cediranib (30 min, 37°C); four concentrations of VEGF165b-TMR (3–20 nM), 90 min at 37°C; KD kinetic (koff/kon).
The target is the same in experiment [10]. The experiment in a line: FRET or BRET; NanoBRET kinetics, wild-type NanoLuc-VEGFR2 membranes (10 μg per well), HeBSS/0.1% BSA pH 6.0 (5.8–6.2); four concentrations of VEGF165b-TMR (3–20 nM), 37°C; KD kinetic (koff/kon).
For experiment [11] the target is unchanged. The experiment in a line: FRET or BRET; NanoBRET kinetics, wild-type NanoLuc-VEGFR2 membranes (10 μg per well), HeBSS/0.1% BSA pH 7.4 (matched with pH 6.0); four concentrations of VEGF165b-TMR (3–20 nM), 37°C; KD kinetic (koff/kon).
Experiment [12] shares this target. Put plainly: FRET or BRET; NanoBRET kinetics, intact HEK293T cells stably expressing NanoLuc-VEGFR2, pretreated with 0.01% DMSO (30 min, 37°C); four concentrations of VEGF165b-TMR (3–20 nM), every 30 s for 90 min at 37°C; constants from a global association fit to the initial 20 min; KD kinetic (koff/kon).
The target is the same in experiment [13]. Put plainly: FRET or BRET; NanoBRET kinetics, intact HEK293T cells stably expressing NanoLuc-VEGFR2, pretreated with 1 μM cediranib (30 min, 37°C); four concentrations of VEGF165b-TMR (3–20 nM), every 30 s for 90 min at 37°C; constants from a global association fit to the initial 20 min; KD kinetic (koff/kon).
Experiment [14] has the same target. Put plainly: FRET or BRET; NanoBRET time course, intact HEK293T cells transiently transfected with wild-type or tyrosine phosphorylation-deficient NanoLuc-VEGFR2; 3 or 20 nM VEGF121a-TMR; every 30 s at 37°C.
Experiment [15] has as its target tyrosine phosphorylation-deficient NanoLuc-VEGFR2 (UniProt P35968). The description is as above.
Experiment [16] has the same target. The experiment in a line: FRET or BRET; NanoBRET kinetics, membranes from a stable cell line expressing tyrosine phosphorylation-deficient NanoLuc-VEGFR2; four concentrations of VEGF121a-TMR (3–20 nM), 90 min at 37°C; KD kinetic (koff/kon).

As a reminder, the Kd is the concentration at which binding is half-saturated. A word on the koff: it is the first-order rate constant of dissociation. One may read the kon as a measure of how fast the partners come together. As usually defined, the residence time is how long the partners stay bound on average.

Chain of VEGF-Ax (P15692 whole entry): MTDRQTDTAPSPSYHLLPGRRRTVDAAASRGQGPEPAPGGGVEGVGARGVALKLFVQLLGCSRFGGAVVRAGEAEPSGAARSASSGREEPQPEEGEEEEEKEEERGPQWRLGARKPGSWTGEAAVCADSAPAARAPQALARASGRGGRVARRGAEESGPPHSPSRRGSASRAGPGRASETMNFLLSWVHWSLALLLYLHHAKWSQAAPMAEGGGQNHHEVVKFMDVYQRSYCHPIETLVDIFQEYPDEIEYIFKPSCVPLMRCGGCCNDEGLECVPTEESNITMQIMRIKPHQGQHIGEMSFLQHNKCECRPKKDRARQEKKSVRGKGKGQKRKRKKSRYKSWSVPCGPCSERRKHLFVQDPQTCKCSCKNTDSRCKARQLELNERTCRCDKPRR
Chain of VEGF165a-TMR (P15692 whole entry): as above

As to “VEGF165a-TMR (from UniProt P15692-4 1-191) (ligand)”, the Kd in experiment [1] came to 2.21 nM; in [2], 2.4 nM; in experiment [3] it was 0.31 nM.
On to VEGF165a-TMR (from UniProt P15692), for which, in experiment [4], the Kd is 6.64 nM.
VEGF-Ax (ligand): in [5], the pKi (fluorescent probe VEGF121a-TMR) was 10.3, the pKi (fluorescent probe VEGF165a-TMR) is 10.2 and the pKi (fluorescent probe VEGF165b-TMR) worked out at 9.96.
With “VEGF165b-TMR (from UniProt P15692-8 1-191) (ligand)”, the dissociation constant (Kd) in experiment [6] came out at 4.43 nM; in experiment [7] it was 5.29 nM; in experiment [8], 9.68 nM; in experiment [9], 8 nM; in experiment [10], 13.3 nM; in experiment [1], 9.21 nM. Further, the Kd in experiment [11] came out at 10.2 nM; in experiment [3], 5.55 nM; in experiment [12] it was 19.8 nM; in [13], 43.6 nM. Further, the koff is 0.000383 s⁻¹ in [8]; 0.00035 s⁻¹ in [9]; 0.000983 s⁻¹ in experiment [10]; 0.000483 s⁻¹ in [1]; 0.000383 s⁻¹ in experiment [11]; 0.00135 s⁻¹ in experiment [12]. The koff in experiment [13] is 0.00152 s⁻¹. Moreover, the association rate constant (kon) in experiment [8] amounted to 44800 M⁻¹ s⁻¹; in experiment [9], 45700 M⁻¹ s⁻¹; in experiment [10], 73200 M⁻¹ s⁻¹; in experiment [1] it was 61500 M⁻¹ s⁻¹; in experiment [11] it was 39000 M⁻¹ s⁻¹; in [12], 71000 M⁻¹ s⁻¹. The kon in experiment [13] was determined as 43800 M⁻¹ s⁻¹. The residence time in experiment [8] was 43.5 min; in experiment [9] it was 47.6 min; in experiment [10], 17 min; in [1], 34.5 min; in [11] it was 43.5 min; in experiment [12], 12.3 min. For the same substance, the residence time in [13] was determined as 11 min. For the same substance, the AUC of the NanoBRET time course at 5 nM in [12] worked out at 0.71; in experiment [13], 0.77. Also, the AUC of the NanoBRET time course at 20 nM in experiment [12] worked out at 1.8; in experiment [13], 2.04.
“VEGF121a-TMR (from UniProt P15692-9 1-147) (ligand)”: in experiment [14], the AUC of the NanoBRET time course at 3 nM amounted to 2.61 and the AUC of the NanoBRET time course at 20 nM came to 7.28. In [15], the AUC of the NanoBRET time course at 3 nM turned out to be 3.54 and the AUC of the NanoBRET time course at 20 nM was found to be 9.79. In experiment [1], this substance came in with a Kd of 3.85 nM, a koff of 0.000317 s⁻¹, a kon of 85500 M⁻¹ s⁻¹ and a residence time of 52.6 min. In [16], this substance came in with a Kd of 6.85 nM, a koff of 0.000617 s⁻¹, an association rate constant (kon) of 104000 M⁻¹ s⁻¹ and a residence time of 27 min. Further, the Kd in experiment [3] stood at 2.58 nM.
